# From patent US20200332005A1
# Biological target: N-terminal of CD73
# Experiment: plate binding assay, axis Binding activity (OD450) against Ab (µg/ml); panel Binding to N-terminal of CD73
substance,measurement,value
MEDI-9447 (Medimmune) (antibody),EC50 (read off the curve),0.01 µg/mL
